B1: Pistol ribozyme (parent)
chain: GGGUCGUUGUUCCAUAAUCGCGUGGAUAUGGCACGCAAGUUUCUACCGGGCACCGUAAAUGUCCGACUGGAGCCGUUCGGGCGGCUAUAAACAGACCUCAGGCCCGAAGCGUGGCGGCACCUGCCGCCGGUGGUAAAAAAGAUCGGAAGAGCACACGUCU

Variants of: B1
Assay: aptazyme ON/OFF ratio, guanine; higher = stronger switching; co-transcriptional cleavage with and without guanine

Point of comparison: GGGUCGCUCAAGGAUAAUCGCGUGGAUAUGGCACGCAAGUUUCUACCGGGCACCGUAAAUGUCCGACUGGAGCCGUUCGGGCGGCUAUAAACAGACCUCAGGCCCGAAGCGUGGCGGCACCUGCCGCCGGUGGUAAAAAAGAUCGGAAGAGCACACGUCU [U7C G9C U10A U11A C12G C13G], “aptazyme ON/OFF ratio” value 1.12. Against it:
- GGGUCGCUCAAAAAUAAUCGCGUGGAUAUGGCACGCAAGUUUCUACCGGGCACCGUAAAUGUCCGACUGGAGCCGUUCGGGCGGCUAUAAACAGACCUCAGGCCCGAAGCGUGGCGGCACCUGCCGCCGGUGGUAAAAAAGAUCGGAAGAGCACACGUCU [U7C G9C U10A U11A C12A C13A] — lower, 1.09
- GGGUCGCUCAAAUAUAAUCGCGUGGAUAUGGCACGCAAGUUUCUACCGGGCACCGUAAAUGUCCGACUGGAGCCGUUCGGGCGGCUAUAAACAGACCUCAGGCCCGAAGCGUGGCGGCACCUGCCGCCGGUGGUAAAAAAGAUCGGAAGAGCACACGUCU [U7C G9C U10A U11A C12A C13U] — lower, 1.06
- GGGUCGCUCAAAGAUAAUCGCGUGGAUAUGGCACGCAAGUUUCUACCGGGCACCGUAAAUGUCCGACUGGAGCCGUUCGGGCGGCUAUAAACAGACCUCAGGCCCGAAGCGUGGCGGCACCUGCCGCCGGUGGUAAAAAAGAUCGGAAGAGCACACGUCU [U7C G9C U10A U11A C12A C13G] — lower, 1.08
- GGGUCGCUCAAUAAUAAUCGCGUGGAUAUGGCACGCAAGUUUCUACCGGGCACCGUAAAUGUCCGACUGGAGCCGUUCGGGCGGCUAUAAACAGACCUCAGGCCCGAAGCGUGGCGGCACCUGCCGCCGGUGGUAAAAAAGAUCGGAAGAGCACACGUCU [U7C G9C U10A U11A C12U C13A] — lower, 1.04
- GGGUCGCUCAAUUAUAAUCGCGUGGAUAUGGCACGCAAGUUUCUACCGGGCACCGUAAAUGUCCGACUGGAGCCGUUCGGGCGGCUAUAAACAGACCUCAGGCCCGAAGCGUGGCGGCACCUGCCGCCGGUGGUAAAAAAGAUCGGAAGAGCACACGUCU [U7C G9C U10A U11A C12U C13U] — lower, 1.09
- GGGUCGCUCAAUGAUAAUCGCGUGGAUAUGGCACGCAAGUUUCUACCGGGCACCGUAAAUGUCCGACUGGAGCCGUUCGGGCGGCUAUAAACAGACCUCAGGCCCGAAGCGUGGCGGCACCUGCCGCCGGUGGUAAAAAAGAUCGGAAGAGCACACGUCU [U7C G9C U10A U11A C12U C13G] — lower, 1.06
- GGGUCGCUCAAGCAUAAUCGCGUGGAUAUGGCACGCAAGUUUCUACCGGGCACCGUAAAUGUCCGACUGGAGCCGUUCGGGCGGCUAUAAACAGACCUCAGGCCCGAAGCGUGGCGGCACCUGCCGCCGGUGGUAAAAAAGAUCGGAAGAGCACACGUCU [U7C G9C U10A U11A C12G] — lower, 1.09
- GGGUCGCUCAAUCAUAAUCGCGUGGAUAUGGCACGCAAGUUUCUACCGGGCACCGUAAAUGUCCGACUGGAGCCGUUCGGGCGGCUAUAAACAGACCUCAGGCCCGAAGCGUGGCGGCACCUGCCGCCGGUGGUAAAAAAGAUCGGAAGAGCACACGUCU [U7C G9C U10A U11A C12U] — lower, 1.05
- GGGUCGCUCAAACAUAAUCGCGUGGAUAUGGCACGCAAGUUUCUACCGGGCACCGUAAAUGUCCGACUGGAGCCGUUCGGGCGGCUAUAAACAGACCUCAGGCCCGAAGCGUGGCGGCACCUGCCGCCGGUGGUAAAAAAGAUCGGAAGAGCACACGUCU [U7C G9C U10A U11A C12A] — higher, 1.16
- GGGUCGCUCACCCAUAAUCGCGUGGAUAUGGCACGCAAGUUUCUACCGGGCACCGUAAAUGUCCGACUGGAGCCGUUCGGGCGGCUAUAAACAGACCUCAGGCCCGAAGCGUGGCGGCACCUGCCGCCGGUGGUAAAAAAGAUCGGAAGAGCACACGUCU [U7C G9C U10A U11C] — lower, 1.04
- GGGUCGCUCAACCAUAAUCGCGUGGAUAUGGCACGCAAGUUUCUACCGGGCACCGUAAAUGUCCGACUGGAGCCGUUCGGGCGGCUAUAAACAGACCUCAGGCCCGAAGCGUGGCGGCACCUGCCGCCGGUGGUAAAAAAGAUCGGAAGAGCACACGUCU [U7C G9C U10A U11A] — lower, 1.05
- GGGUCGCUCAACAAUAAUCGCGUGGAUAUGGCACGCAAGUUUCUACCGGGCACCGUAAAUGUCCGACUGGAGCCGUUCGGGCGGCUAUAAACAGACCUCAGGCCCGAAGCGUGGCGGCACCUGCCGCCGGUGGUAAAAAAGAUCGGAAGAGCACACGUCU [U7C G9C U10A U11A C13A] — lower, 1.11
- GGGUCGCUCAACUAUAAUCGCGUGGAUAUGGCACGCAAGUUUCUACCGGGCACCGUAAAUGUCCGACUGGAGCCGUUCGGGCGGCUAUAAACAGACCUCAGGCCCGAAGCGUGGCGGCACCUGCCGCCGGUGGUAAAAAAGAUCGGAAGAGCACACGUCU [U7C G9C U10A U11A C13U] — lower, 1.05
- GGGUCGCUCAACGAUAAUCGCGUGGAUAUGGCACGCAAGUUUCUACCGGGCACCGUAAAUGUCCGACUGGAGCCGUUCGGGCGGCUAUAAACAGACCUCAGGCCCGAAGCGUGGCGGCACCUGCCGCCGGUGGUAAAAAAGAUCGGAAGAGCACACGUCU [U7C G9C U10A U11A C13G] — lower, 1.05
- GGGUCGCUCAUCUAUAAUCGCGUGGAUAUGGCACGCAAGUUUCUACCGGGCACCGUAAAUGUCCGACUGGAGCCGUUCGGGCGGCUAUAAACAGACCUCAGGCCCGAAGCGUGGCGGCACCUGCCGCCGGUGGUAAAAAAGAUCGGAAGAGCACACGUCU [U7C G9C U10A C13U] — lower, 1.05
- GGGUCGCUCAAGUAUAAUCGCGUGGAUAUGGCACGCAAGUUUCUACCGGGCACCGUAAAUGUCCGACUGGAGCCGUUCGGGCGGCUAUAAACAGACCUCAGGCCCGAAGCGUGGCGGCACCUGCCGCCGGUGGUAAAAAAGAUCGGAAGAGCACACGUCU [U7C G9C U10A U11A C12G C13U] — lower, 1.07
- GGGUCGCUCAAGAAUAAUCGCGUGGAUAUGGCACGCAAGUUUCUACCGGGCACCGUAAAUGUCCGACUGGAGCCGUUCGGGCGGCUAUAAACAGACCUCAGGCCCGAAGCGUGGCGGCACCUGCCGCCGGUGGUAAAAAAGAUCGGAAGAGCACACGUCU [U7C G9C U10A U11A C12G C13A] — lower, 1.08

Source: the RNAGym collection of RNA variant scans (doi:10.1021/acssynbio.7b00057)
